± gives the standard deviation of the averaged measurements.
B1: library; a variant is named by its letters at N, in order (parent)
chain: GCUGUCACCGGUGCUUGGUACGUUAUAUUCAGCCGGUCUGAUGAGUCUNNNNNNAGACGAAACAGC

What was measured:
(6R,S)-folinic acid [1] = variants of: B1; assay: normalized RNA/DNA level without ligand (relative to sTRSVctl = 100) (log10 (% of sTRSVctl)); HEK293T overexpressing SLC46A1; higher = less ribozyme self-cleavage, higher mRNA level; conditions: without (6R,S)-folinic acid; ligand present: no
Summary of the method: (§1)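 Only sequences with at least 100 DNA reads were analyzed, from HEK293T cells transfected with 4 µg per 6-well well of ribozyme switch library plasmids 72 h before RNA extraction with EDTA. Any ligand was added 1 h before transfection. RNA level was defined as RNA over DNA reads, normalized to a spiked-in non-cleaving sequence or to the top sequences, then scaled and log-transformed. The top set was 25 sequences, and the scaling was ×100 followed by log10.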

(6R,S)-folinic acid [2] = variants of: B1; assay: normalized RNA/DNA level with ligand (relative to sTRSVctl = 100) (log10 (% of sTRSVctl)); HEK293T overexpressing SLC46A1; ligand concentration (+) RNA-Seq: 6 mM; higher = less ribozyme self-cleavage, higher mRNA level; conditions: with (6R,S)-folinic acid; ligand present: yes
Summary of the method: as §1

Row | Variant | normalized RNA/DNA level without ligand (log10) ((6R,S)-folinic acid [1]) | normalized RNA/DNA level with ligand (log10) ((6R,S)-folinic acid [2])
1 | CCAAUC | 2.028 ± 0.018 | 1.99 ± 0.049
2 | UUAGAC | 2 ± 0.01 | 2.01 ± 0.041
3 | UUAAAU | 1.974 ± 0.0099 | 2.01 ± 0.024
4 | CCCACG | 2.014 ± 0.0016 | 2.03 ± 0.021
5 | GCUUGG | 1.932 ± 0.015 | 2.02 ± 0.028
6 | UGCAAC | 1.95 ± 0.0091 | 1.99 ± 0.029
7 | GCGCUC | 2.05 ± 0.049 | 2.01 ± 0.043
8 | AAUCUG | 1.958 ± 0.0061 | 2.04 ± 0.048
9 | CAGCUU | 1.987 ± 0.0035 | 2.01 ± 0.026
10 | UGAACA | 1.9795 ± 0.00092 | 2.01 ± 0.037
11 | CGUUUU | 2.032 ± 0.0078 | 2.037 ± 0.0095
12 | GAUAUU | 2.005 ± 0.0061 | 2.02 ± 0.041
13 | CGACGC | 2.03 ± 0.0041 | 2.01 ± 0.038
14 | GCAAUG | 1.98 ± 0.0061 | 2.033 ± 0.0084
15 | AGUGCG | 1.849 ± 0.017 | 2.01 ± 0.062
16 | AGUGCU | 2.01 ± 0.0069 | 2.03 ± 0.027
17 | CGCGCG | 1.995 ± 0.016 | 1.95 ± 0.1
18 | AAUGUG | 1.81 ± 0.0053 | 1.999 ± 0.013
19 | CUGUUA | 1.994 ± 0.0099 | 2.04 ± 0.03
20 | GAUUUU | 2.011 ± 0.0062 | 2.026 ± 0.0072
21 | CGGGGU | 2.039 ± 0.015 | 2.07 ± 0.024
22 | UACUCC | 2.051 ± 0.012 | 2.034 ± 0.0051
23 | GGGUCU | 2.064 ± 0.0032 | 2.06 ± 0.018

Row | Variant | normalized RNA/DNA level without ligand (log10) ((6R,S)-folinic acid [1]) | normalized RNA/DNA level with ligand (log10) ((6R,S)-folinic acid [2])
24 | CCGUAU | 2.016 ± 0.0098 | 2.022 ± 0.0084
25 | AGCCCC | 2.051 ± 0.0083 | 2 ± 0.036
26 | AGAGUA | 1.94 ± 0.0059 | 2.01 ± 0.033
27 | GGCGGA | 2.064 ± 0.0089 | 2.021 ± 0.016
28 | GGACAU | 2.018 ± 0.011 | 2.011 ± 0.016
29 | GUCGGU | 2.018 ± 0.0045 | 2.06 ± 0.027
30 | AGGGUC | 2.051 ± 0.0057 | 2.03 ± 0.063
31 | GUAGGA | 1.946 ± 0.0025 | 2 ± 0.047
32 | GUCUAA | 1.978 ± 0.0082 | 1.991 ± 0.014
33 | CCGGCG | 2.05 ± 0.025 | 2.05 ± 0.038
34 | CGUUAC | 2.037 ± 0.015 | 2.01 ± 0.037
35 | ACGUUC | 2.07 ± 0.022 | 2.02 ± 0.037
36 | UCGAAA | 1.927 ± 0.0063 | 1.979 ± 0.0054
37 | UUCCCG | 1.972 ± 0.0089 | 2 ± 0.038
38 | UCCGGC | 2.08 ± 0.024 | 2.024 ± 0.018
39 | AAUCGU | 1.99 ± 0.0073 | 2.013 ± 0.0078
40 | CCGCUA | 2.01 ± 0.019 | 2.02 ± 0.043
41 | CUAACC | 2.007 ± 0.0068 | 1.98 ± 0.073
42 | CAUGGG | 1.91 ± 0.015 | 2.008 ± 0.013
43 | CAUGAG | 1.942 ± 0.0092 | 2.006 ± 0.0049
44 | CUAUAC | 2.001 ± 0.0069 | 2.01 ± 0.014
45 | GUGCGG | 1.968 ± 0.014 | 2.0481 ± 0.00061
46 | AAGGUU | 1.974 ± 0.015 | 2.02 ± 0.025

Row | Variant | normalized RNA/DNA level without ligand (log10) ((6R,S)-folinic acid [1]) | normalized RNA/DNA level with ligand (log10) ((6R,S)-folinic acid [2])
47 | CGUGUU | 2.001 ± 0.016 | 2.03 ± 0.057
48 | GCGUUC | 2.017 ± 0.0029 | 2.034 ± 0.02
49 | GUCCGU | 2.02 ± 0.021 | 2.022 ± 0.012
50 | UCGUCC | 2.064 ± 0.0091 | 2.0551 ± 0.00048
51 | CGGGCC | 2.072 ± 0.0092 | 2.035 ± 0.019
52 | UGUUAU | 1.95 ± 0.028 | 1.975 ± 0.0073
53 | UUGGGA | 1.881 ± 0.0033 | 2.03 ± 0.039
54 | GGAAGG | 1.95 ± 0.022 | 2.03 ± 0.04
55 | CCAGCA | 2.01 ± 0.031 | 1.985 ± 0.0059
56 | CCAGCU | 2.087 ± 0.018 | 2.036 ± 0.013
57 | UCUGAG | 1.745 ± 0.011 | 1.98 ± 0.03
58 | CAAGAU | 1.97 ± 0.009 | 2.01 ± 0.025
59 | CCAUAC | 1.991 ± 0.012 | 1.96 ± 0.059
60 | CCCCAC | 2.04 ± 0.022 | 2.05 ± 0.037
61 | ACUAUG | 1.9049 ± 0.00034 | 2.008 ± 0.016
62 | UGGCGC | 2.08 ± 0.027 | 2.05 ± 0.055
63 | UGGCGG | 1.8196 ± 0.0011 | 1.99 ± 0.056
64 | CCCUCU | 2.1 ± 0.026 | 2.09 ± 0.057
65 | CACUUG | 2.032 ± 0.0036 | 2.03 ± 0.0041
66 | AUUGUU | 1.988 ± 0.0071 | 1.998 ± 0.008
67 | AAGCUA | 1.991 ± 0.0072 | 2 ± 0.024
68 | AAGCUU | 2.01 ± 0.019 | 2.012 ± 0.0064
69 | ACCAAG | 2.0073 ± 0.00077 | 2.009 ± 0.014

Row | Variant | normalized RNA/DNA level without ligand (log10) ((6R,S)-folinic acid [1]) | normalized RNA/DNA level with ligand (log10) ((6R,S)-folinic acid [2])
70 | CACUCG | 2.01 ± 0.03 | 2 ± 0.024
71 | ACGCAG | 1.934 ± 0.018 | 2.01 ± 0.027
72 | UGCUAC | 2.021 ± 0.0079 | 2.02 ± 0.071
73 | UCCUUU | 2.07 ± 0.021 | 2.08 ± 0.032
74 | CUUCUA | 2.0515 ± 0.00054 | 2.083 ± 0.015
75 | AUUGCC | 2.02 ± 0.029 | 2.02 ± 0.055
76 | CUUAAC | 1.9881 ± 0.0006 | 1.983 ± 0.0059
77 | CGCACA | 1.989 ± 0.0068 | 1.98 ± 0.026
78 | AUUUCU | 2.03 ± 0.025 | 2.034 ± 0.019
79 | GAACCG | 2.018 ± 0.017 | 2.03 ± 0.038
80 | GCCCUG | 2.05 ± 0.023 | 2.04 ± 0.039
81 | UUGACU | 2.0063 ± 0.0015 | 2.04 ± 0.053
82 | GACGCG | 1.9961 ± 0.00035 | 2.032 ± 0.015
83 | GUAGCC | 2.021 ± 0.016 | 2.051 ± 0.0086
84 | GUAGCA | 1.973 ± 0.0074 | 2 ± 0.022
85 | AGAGGC | 2.018 ± 0.02 | 2.01 ± 0.04
86 | UGACCG | 1.983 ± 0.0022 | 2.01 ± 0.023
87 | CAUACA | 2.001 ± 0.0091 | 1.98 ± 0.048
88 | AGAAAG | 1.901 ± 0.0062 | 2.01 ± 0.022
89 | GAUCAC | 2.03 ± 0.031 | 2.034 ± 0.0087
90 | ACAUGA | 1.979 ± 0.01 | 2.034 ± 0.019
91 | AUGUAC | 1.959 ± 0.01 | 1.98 ± 0.025
92 | CCAUUU | 2.012 ± 0.018 | 2.04 ± 0.036

Row | Variant | normalized RNA/DNA level without ligand (log10) ((6R,S)-folinic acid [1]) | normalized RNA/DNA level with ligand (log10) ((6R,S)-folinic acid [2])
93 | UCCUAA | 1.981 ± 0.0064 | 2.018 ± 0.014
94 | GUGACG | 1.95 ± 0.017 | 2 ± 0.032
95 | UCGCUG | 2.01 ± 0.021 | 2.06 ± 0.037
96 | AAAAUG | 1.935 ± 0.013 | 2.02 ± 0.024
97 | CUAGAG | 1.92 ± 0.035 | 2.02 ± 0.042
98 | CUAGAA | 1.992 ± 0.016 | 2.018 ± 0.016
99 | GCUUAG | 1.9687 ± 0.00031 | 2.015 ± 0.013
100 | CCUCCG | 2.07 ± 0.029 | 2.049 ± 0.011
101 | UUCUCG | 1.944 ± 0.0051 | 2.02 ± 0.056
102 | ACAACC | 2.035 ± 0.0087 | 2.03 ± 0.025
103 | ACACUU | 1.996 ± 0.016 | 2.03 ± 0.027
104 | UCGGGC | 2.06 ± 0.021 | 2.03 ± 0.055
105 | UGCCCG | 1.95 ± 0.022 | 2.01 ± 0.07
106 | UAGUCU | 2.0118 ± 0.0019 | 2.02 ± 0.037
107 | CCGGGA | 2.039 ± 0.0033 | 2.02 ± 0.054
108 | GGGCCU | 2.098 ± 0.0088 | 2.08 ± 0.036
109 | ACCAUC | 2.044 ± 0.011 | 2.02 ± 0.04
110 | UUCACC | 2.06 ± 0.036 | 2.02 ± 0.068
111 | CCAUGC | 2.054 ± 0.015 | 2.05 ± 0.04
112 | AGUAUA | 1.9846 ± 0.0011 | 2.02 ± 0.0084
113 | AGUAUU | 2 ± 0.011 | 2.032 ± 0.018
114 | CAAUUU | 1.995 ± 0.0068 | 2 ± 0.032
115 | GAAUGU | 1.988 ± 0.015 | 2.01 ± 0.035

Source: the supplement of paper PMC6757056
